In CN114790245A (CHENGDU KANGHONG BIOLOGICAL TECH CO LTD, dated 2022):

Legend:
[1] = target: T1, 血浆激肽释放酶(plasma kallikrein,PK) (human, UniProt P03952 20-638); assay: cell-based or functional assay
[2] = target: T1, 血浆激肽释放酶(plasma kallikrein,PK); assay: cell-based or functional assay; remark: listed apart in the source

T1 sequence (P03952 20-638 limits assumed): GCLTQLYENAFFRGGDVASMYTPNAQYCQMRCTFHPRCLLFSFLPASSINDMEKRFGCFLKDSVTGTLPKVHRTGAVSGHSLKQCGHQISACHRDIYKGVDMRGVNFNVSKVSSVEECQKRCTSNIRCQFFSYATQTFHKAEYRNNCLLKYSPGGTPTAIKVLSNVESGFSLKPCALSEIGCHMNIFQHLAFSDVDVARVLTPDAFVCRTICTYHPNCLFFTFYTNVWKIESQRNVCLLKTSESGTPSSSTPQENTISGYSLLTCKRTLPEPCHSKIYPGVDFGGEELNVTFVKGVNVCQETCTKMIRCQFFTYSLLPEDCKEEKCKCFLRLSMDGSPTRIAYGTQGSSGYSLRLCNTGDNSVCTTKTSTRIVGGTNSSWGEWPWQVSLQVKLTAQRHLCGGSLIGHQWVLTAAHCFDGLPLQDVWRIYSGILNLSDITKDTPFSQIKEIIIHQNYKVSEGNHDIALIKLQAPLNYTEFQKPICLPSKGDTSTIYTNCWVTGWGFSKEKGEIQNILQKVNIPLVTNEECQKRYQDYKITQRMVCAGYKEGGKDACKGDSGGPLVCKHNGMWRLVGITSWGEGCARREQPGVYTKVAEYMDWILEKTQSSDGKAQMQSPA

Binder	IC50(nM), PK enzyme activity on H-Pro-Phe-Arg-AMC (fluorescence) [1] [nM]	IC50(nM), PK activity in human plasma activated with Factor XIIa (H-Pro-Phe-Arg-AMC) [2] [nM]
KH01 (antibody, human IgG4 S228P, kappa, V domains shown) VH: EVQLHQSGAELVKPGASVRLSCTASGFNIKDTYIFWVKQRPEQGLEWIGRIDPENDNTKFDPKIQGKATLTADTSSNTAYLQLGSLTSEDSAIYYCAKGGGLFAYWGQGTLVSVSA VL: DIQMTQSPSSLSASLGGKVTITCKASHDINKYIAWYQHKPGSGPRLLIHFTSTLQSDIPSRFSGSGSGRDYSFSISNLEPEDIATYYCLQYDNLFTFGGGTKLEIKR	0.297	0.753
KH02 (antibody, human IgG4 S228P, kappa, V domains shown) VH: EVQLQQSGAELVKPGASVRLSCTASGFNIKDTYIFWVKQRPKQGLEWIGRIDPENDNTKYDPKIQGKATLTADTSSNTAYLQLSSLTSEDSAIYYCAKGGGLFAYWGQGTLVSVSA VL: DIQMTQSPSSLSTSLGGKVTITCEASHDINNYIAWYQHKPGKGPRLLIHYTSTLQSGIPSRFSGSGSGKDYSFSISNLEPEDIATYYCLQYDNLFTFGGGTKLEIKR	0.235	0.52
KH05 (antibody, human IgG4 S228P, kappa, V domains shown) VH: EVQLQQSGAELVKPGASVRLSCTASGFNIKDTYIFWVKQRPKQGLEWIGRIDPENDNTKYDPKIQGKATLTADTSSNTAYLQLSSLTSEDSAIYYCAKGGGLFAYWGQGTLVSVSA VL: DIQMTQSPSSLSASVGDRVTITCEASHDINNYIAWYQQKPGQPPKLLIYYTSTLQSGVPSRFSGSGSGTEFTLTISNLQPEDFATYYCLQYDNLFTFGQGTKVEIKR		0.921
KH07 (antibody, human IgG4 S228P, kappa, V domains shown) VH: EVQLQQSGAELVKPGASVRLSCTASGFNIKDTYIFWVKQRPKQGLEWIGRIDPENDNTKYDPKIQGKATLTADTSSNTAYLQLSSLTSEDSAIYYCAKGGGLFAYWGQGTLVSVSA VL: DIQMTQSPSAMSASVGDRVTITCEASHDINNYIAWYQQKPGQPPKLLIYYTSTLQSGVPSRFSGSGSGTDFTFTISSLQPEDIATYYCLQYDNLFTFGQGTKVEIKR		0.863
KH18 (antibody, human IgG4 S228P, kappa, V domains shown) VH: QVQLLESGAELVRPGSSVKISCKASGYAFTNYWMHWVKQRPGQGLEWIGAIYPGDSDTSYNQKFKGKATLTADESSSTAYMQLSSLRSEDSAVYSCARERAYYRYDEDFDYWGQGTTVTVSS VL: DIQMTQSPSSLSASVGDRVTITCSATSIINSNYFHWYQQKPGKAPKLLIYRTSNLASGVPSRFSGSGSGTDFTFTISSLQPEDIATYYCQQGSSLPRTFGGGTKLEIKR		0.419
KH16 (antibody, human IgG4 S228P, kappa, V domains shown) VH: EVQLVQSGAEVKKPGATVKISCKVSGYTFTNYWMHWVQQAPGKGLEWMGAIYPGDSDTSYNQKFKGRVTITADTSTDTAYMELSSLRSEDTAVYYCTRERAYYRYDEDFDYWGQGTLVTVSS VL: DIQMTQSPSSLSASVGDRVTITCSATSIINSNYFHWYQQKPGKAPKLLIYRTSNLASGVPSRFSGSGSGTDFTFTISSLQPEDIATYYCQQGSSLPRTFGGGTKLEIKR	0.23	
KH13 (antibody, human IgG1, kappa, V domains shown) VH: QVQLVQSGAEVKKPGASVKVSCKASGYTFTNYWMHWVRQAPGQGLEWMGAIYPGDSDTSYNQKFKGRVTMTRDTSTSTVYMELSSLRSEDTAVYYCARERAYYRYDEDFDYWGQGTLVTVSS VL: DIQMTQSPSSLSASVGDRVTITCSATSIINSNYFHWYQQKPGKAPKLLIYRTSNLASGVPSRFSGSGSGTDFTFTISSLQPEDIATYYCQQGSSLPRTFGGGTKLEIKR	0.221	
KH11 (antibody, human IgG4 S228P, kappa) heavy: not shown light: EIVLTQSPTTMAASPGEKITITCSATSIINSNYFHWYQQKPGFSPKLLIYRTSNLASGVPARFSGSGSGTSYSLTIGTMEAEDVATYYCQQGSSLPRTFGGGTKLEIKRTVAAPSVFIFPPSDEQLKSGTASVVCLLNNFYPREAKVQWKVDNALQSGNSQESVTEQDSKDSTYSLSSTLTLSKADYEKHKVYACEVTHQGLSSPVTKSFNRGEC	0.188	0.103
KH10 (antibody, human IgG1, kappa) heavy: not shown light: EIVLTQSPTTMAASPGEKITITCSATSIINSNYFHWYQQKPGFSPKLLIYRTSNLASGVPARFSGSGSGTSYSLTIGTMEAEDVATYYCQQGSSLPRTFGGGTKLEIKRTVAAPSVFIFPPSDEQLKSGTASVVCLLNNFYPREAKVQWKVDNALQSGNSQESVTEQDSKDSTYSLSSTLTLSKADYEKHKVYACEVTHQGLSSPVTKSFNRGEC	0.227	
KH21 (antibody, V domains shown) VH: EVQLQQSGAELVKPGASVKLSCTGSGFNIKDIYMFWVKQRPEQGLEWIGRIDPENGNIKYDPKFQGKATITAETSSNTVYLQLNSLTSEDTAVYYCSRGGGLFAYWGQGTLVTVSA VL: DIQMTQSPSSLSASLGGKVTITCKASQDINKYIAWYQHKPGKGPRLLIHYTSTLQPGIPSRFSGSGSGSDYSFSISTLEPEDIATYYCLQYDDLWTFGGGTKLEIK	0.82	1.29
KH12 (antibody, human IgG1, kappa, V domains shown) VH: QVQLVQSGAEVKKPGASVKVSCKASGYTFTNYWMHWVRQAPGQGLEWMGAIYPGDSDTSYNQKFKGRVTMTRDTSTSTVYMELSSLRSEDTAVYYCARERAYYRYDEDFDYWGQGTLVTVSS VL: EIVMTQSPPTLSLSPGERVTLSCSATSIINSNYFHWYQQKPGQAPRLLIYRTSNLASGIPARFSGSGSGTDFTLTISSLQPEDFAVYYCQQGSSLPRTFGGGTKLEIKR	0.174	
KH14 (antibody, human IgG1, kappa, V domains shown) VH: QVQLVQSGAEVKKPGASVKVSCKASGYTFTNYWMHWVRQAPGQGLEWMGAIYPGDSDTSYNQKFKGRVTMTRDTSTSTVYMELSSLRSEDTAVYYCARERAYYRYDEDFDYWGQGTLVTVSS VL: EIVLTQSPAIMSASPGERVTMTCSATSIINSNYFHWYQQKPGTSPRRWIYRTSNLASGVPARFSGSGSGTDYSLTISSMEPEDAATYYCQQGSSLPRTFGGGTKLEIKR	0.398	
KH15 (antibody, human IgG4 S228P, kappa, V domains shown) VH: EVQLVQSGAEVKKPGATVKISCKVSGYTFTNYWMHWVQQAPGKGLEWMGAIYPGDSDTSYNQKFKGRVTITADTSTDTAYMELSSLRSEDTAVYYCTRERAYYRYDEDFDYWGQGTLVTVSS VL: EIVMTQSPPTLSLSPGERVTLSCSATSIINSNYFHWYQQKPGQAPRLLIYRTSNLASGIPARFSGSGSGTDFTLTISSLQPEDFAVYYCQQGSSLPRTFGGGTKLEIKR	0.224	
KH09 (antibody, human IgG4 S228P, kappa, V domains shown) VH: EVQLVESGGALVKPGGSLRLSCAASGFNIKDTYIFWVRQMPRKGLEWIGRIDPENDNTKYDPKIQGKATITADTSTDTAYMELSSLTSEDTAVYYCAKGGGLFAYWGQGTLVTVSS VL: DIQMTQSPSAMSASVGDRVTITCEASHDINNYIAWYQQKPGKAPKLLIYYTSTLQSGVPSRFSGSGSGTDFTFTISSLQPEDIATYYCLQYDNLFTFGQGTKVEIKR		0.764
KH20 (antibody, V domains shown) VH: not shown VL: DIKMTQSPSSMSASPGERVTITCKASQDINSYLSWFQQKSGKFPKTLIYRANRLVDGVASRFSGSGSGQDYSLTISSLDYEDMGIYYCVQYDEFPLTFGAGTKLELK	1.1	1.09
KH19 (antibody, V domains shown) VH: EVQLQQSGAEVVRPGASVKLSCKPSGFNIKDYYMFWLRQRPDQGLEWIGRIDPENGNTVYDPRFQDRASITAVTSSNTAFLQVNSLTSEDTAVYYCARAGSIPSYWGQGTLVTVSA VL: DIQMTQSPSSLSASLGDKITITCKASQDINKYIAWYQHKPGKGPRLLIHYTSSLHQDIPSRFSGSGSGRDYSFSISNLEPEDFAIYYCLQYDDLWTFGGGTKVEIK	0.87	0.93
KH03 (antibody, human IgG4 S228P, kappa) heavy: not shown light: DIQMTQSPSAMSASVGDRVTITCEASHDINNYIAWYQQKPGKAPKLLIYYTSTLQSGVPSRFSGSGSGTEFTLTISNLQPEDFATYYCLQYDNLFTFGQGTKVEIKRTVAAPSVFIFPPSDEQLKSGTASVVCLLNNFYPREAKVQWKVDNALQSGNSQESVTEQDSKDSTYSLSSTLTLSKADYEKHKVYACEVTHQGLSSPVTKSFNRGEC		0.949
KH04 (antibody, human IgG4 S228P, kappa) heavy: not shown light: DIQMTQSPSSLSASVGDRVTITCEASHDINNYIAWYQQKPGKAPKLLIYYTSTLQSGVPSRFSGSGSGTEFTLTISNLQPEDFATYYCLQYDNLFTFGQGTKVEIKRTVAAPSVFIFPPSDEQLKSGTASVVCLLNNFYPREAKVQWKVDNALQSGNSQESVTEQDSKDSTYSLSSTLTLSKADYEKHKVYACEVTHQGLSSPVTKSFNRGEC		0.987
